Numbered stars: 1 amine (or outer) side, 2 acyl side, 3 side chain; on linkers, the order of the positions; unused ones are H or OH. Bridge positions count the residues as written; N and C are the ends. Side chains are listed from the residue outwards. Ends that are not written are not given here. * marks the point of attachment. C20 diacid = O=C(O)CCCCCCCCCCCCCCCCCCC(=O)*; γGlu = O=C(O)[C@H](CCC(=O)[*:2])N[*:1]
T1: human amylin receptor (amylin 3(a) receptor: human calcitonin receptor plus RAMP-3) (human, UniProt P30988 25-474; O60896 24-148)
T1 sequence (looked up) 1: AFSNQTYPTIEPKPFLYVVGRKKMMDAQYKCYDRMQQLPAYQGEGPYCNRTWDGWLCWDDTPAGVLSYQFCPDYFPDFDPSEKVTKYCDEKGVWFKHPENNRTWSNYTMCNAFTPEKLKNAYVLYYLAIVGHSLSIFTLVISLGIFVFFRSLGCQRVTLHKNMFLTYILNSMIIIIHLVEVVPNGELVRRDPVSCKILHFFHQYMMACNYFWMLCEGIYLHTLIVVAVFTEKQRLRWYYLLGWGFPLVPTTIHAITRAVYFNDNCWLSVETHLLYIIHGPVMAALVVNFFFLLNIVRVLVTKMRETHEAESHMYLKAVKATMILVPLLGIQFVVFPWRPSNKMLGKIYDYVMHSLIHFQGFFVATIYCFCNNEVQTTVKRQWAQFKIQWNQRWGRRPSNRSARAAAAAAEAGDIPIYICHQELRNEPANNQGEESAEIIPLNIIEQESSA
T1 sequence (looked up) 2: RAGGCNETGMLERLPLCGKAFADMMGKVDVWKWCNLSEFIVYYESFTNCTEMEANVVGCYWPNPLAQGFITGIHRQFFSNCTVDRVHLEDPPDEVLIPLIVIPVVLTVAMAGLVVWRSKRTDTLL

T2: human calcitonin receptor (human, UniProt P30988 25-474)
T2 sequence (looked up): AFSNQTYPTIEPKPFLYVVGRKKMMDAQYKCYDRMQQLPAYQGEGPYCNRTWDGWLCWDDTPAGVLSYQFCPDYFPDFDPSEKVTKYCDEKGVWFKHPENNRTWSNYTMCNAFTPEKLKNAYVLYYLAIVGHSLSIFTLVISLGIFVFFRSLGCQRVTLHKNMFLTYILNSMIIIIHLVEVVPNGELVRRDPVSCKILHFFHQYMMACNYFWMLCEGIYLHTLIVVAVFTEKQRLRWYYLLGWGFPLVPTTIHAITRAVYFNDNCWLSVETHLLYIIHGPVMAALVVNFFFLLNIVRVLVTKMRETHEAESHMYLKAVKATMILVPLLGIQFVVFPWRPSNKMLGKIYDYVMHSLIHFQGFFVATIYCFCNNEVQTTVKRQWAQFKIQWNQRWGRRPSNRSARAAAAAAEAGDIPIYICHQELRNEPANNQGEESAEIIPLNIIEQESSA


Columns and labels:
[1] = biological target: T1, human amylin receptor (amylin 3(a) …); test: cell-based or functional assay
[2] = biological target: T2, human calcitonin receptor; test: cell-based or functional assay
[3] = biological target: T1, human amylin receptor (amylin 3(a) …); test: SPA competition binding, displacement of 125I-rat amylin, membranes of BHK amylin 3(a)/CRE-luc cells
Method in brief: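 One-site competition analysis of SPA counts yielded IC₅₀ as a measure of affinity. Membranes were at 35 ng/μL final; incubation was 120 min at 25° C, pH 7.4.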

Row | Binder | Ratio hCT/hAmylin funct. [1] | hAmylin-R funct. EC50 (pM) [1] | hCTR funct. EC50 (pM) [2] | IC50 [3]
1 | K([γGlu-C20 diacid])CNTATCATQRLAHFLRHSSPNFGAIPSSTNVGSHTY-NH2 (disulfide 2-7; N-terminus assumed; SMILES CC[C@H](C)[C@H](NC(=O)[C@H](C)NC(=O)CNC(=O)[C@H](Cc1ccccc1)NC(=O)[C@H](CC(N)=O)NC(=O)[C@@H]1CCCN1C(=O)[C@H](CO)NC(=O)[C@H](CO)NC(=O)[C@H](Cc1c[nH]cn1)NC(=O)[C@H](CCCNC(=N)N)NC(=O)[C@H](CC(C)C)NC(=O)[C@H](Cc1ccccc1)NC(=O)[C@H](Cc1c[nH]cn1)NC(=O)[C@H](C)NC(=O)[C@H](CC(C)C)NC(=O)[C@H](CCCNC(=N)N)NC(=O)[C@H](CCC(N)=O)NC(=O)[C@@H](NC(=O)[C@H](C)NC(=O)[C@@H]1CSSC[C@H](NC(=O)[C@@H](N)CCCCNC(=O)CC[C@H](NC(=O)CCCCCCCCCCCCCCCCCCC(=O)O)C(=O)O)C(=O)N[C@@H](CC(N)=O)C(=O)N[C@@H]([C@@H](C)O)C(=O)N[C@@H](C)C(=O)N[C@@H]([C@@H](C)O)C(=O)N1)[C@@H](C)O)C(=O)N1CCC[C@H]1C(=O)N[C@@H](CO)C(=O)N[C@@H](CO)C(=O)N[C@H](C(=O)N[C@@H](CC(N)=O)C(=O)N[C@H](C(=O)NCC(=O)N[C@@H](CO)C(=O)N[C@@H](Cc1c[nH]cn1)C(=O)N[C@H](C(=O)N[C@@H](Cc1ccc(O)cc1)C(N)=O)[C@@H](C)O)C(C)C)[C@@H](C)O, also called compound 66) | 20.1 | 27 pM | 542 pM | 0.396 nM
2 | K([γGlu-γGlu-C20 diacid])CNTATCATQRLAEFLRHSSPNFGAIPSSTNVGRETY-NH2 (disulfide 2-7; N-terminus assumed; SMILES CC[C@H](C)[C@H](NC(=O)[C@H](C)NC(=O)CNC(=O)[C@H](Cc1ccccc1)NC(=O)[C@H](CC(N)=O)NC(=O)[C@@H]1CCCN1C(=O)[C@H](CO)NC(=O)[C@H](CO)NC(=O)[C@H](Cc1c[nH]cn1)NC(=O)[C@H](CCCNC(=N)N)NC(=O)[C@H](CC(C)C)NC(=O)[C@H](Cc1ccccc1)NC(=O)[C@H](CCC(=O)O)NC(=O)[C@H](C)NC(=O)[C@H](CC(C)C)NC(=O)[C@H](CCCNC(=N)N)NC(=O)[C@H](CCC(N)=O)NC(=O)[C@@H](NC(=O)[C@H](C)NC(=O)[C@@H]1CSSC[C@H](NC(=O)[C@@H](N)CCCCNC(=O)CC[C@H](NC(=O)CC[C@H](NC(=O)CCCCCCCCCCCCCCCCCCC(=O)O)C(=O)O)C(=O)O)C(=O)N[C@@H](CC(N)=O)C(=O)N[C@@H]([C@@H](C)O)C(=O)N[C@@H](C)C(=O)N[C@@H]([C@@H](C)O)C(=O)N1)[C@@H](C)O)C(=O)N1CCC[C@H]1C(=O)N[C@@H](CO)C(=O)N[C@@H](CO)C(=O)N[C@H](C(=O)N[C@@H](CC(N)=O)C(=O)N[C@H](C(=O)NCC(=O)N[C@@H](CCCNC(=N)N)C(=O)N[C@@H](CCC(=O)O)C(=O)N[C@H](C(=O)N[C@@H](Cc1ccc(O)cc1)C(N)=O)[C@@H](C)O)C(C)C)[C@@H](C)O) | – | 703 pM | 7430 pM | 0.957 nM
3 | K([γGlu-γGlu-C20 diacid])CNTATCATQRLAEFLRHSSPNFGAIPSSTNVGPETP-NH2 (disulfide 2-7; N-terminus assumed; SMILES CC[C@H](C)[C@H](NC(=O)[C@H](C)NC(=O)CNC(=O)[C@H](Cc1ccccc1)NC(=O)[C@H](CC(N)=O)NC(=O)[C@@H]1CCCN1C(=O)[C@H](CO)NC(=O)[C@H](CO)NC(=O)[C@H](Cc1c[nH]cn1)NC(=O)[C@H](CCCNC(=N)N)NC(=O)[C@H](CC(C)C)NC(=O)[C@H](Cc1ccccc1)NC(=O)[C@H](CCC(=O)O)NC(=O)[C@H](C)NC(=O)[C@H](CC(C)C)NC(=O)[C@H](CCCNC(=N)N)NC(=O)[C@H](CCC(N)=O)NC(=O)[C@@H](NC(=O)[C@H](C)NC(=O)[C@@H]1CSSC[C@H](NC(=O)[C@@H](N)CCCCNC(=O)CC[C@H](NC(=O)CC[C@H](NC(=O)CCCCCCCCCCCCCCCCCCC(=O)O)C(=O)O)C(=O)O)C(=O)N[C@@H](CC(N)=O)C(=O)N[C@@H]([C@@H](C)O)C(=O)N[C@@H](C)C(=O)N[C@@H]([C@@H](C)O)C(=O)N1)[C@@H](C)O)C(=O)N1CCC[C@H]1C(=O)N[C@@H](CO)C(=O)N[C@@H](CO)C(=O)N[C@H](C(=O)N[C@@H](CC(N)=O)C(=O)N[C@H](C(=O)NCC(=O)N1CCC[C@H]1C(=O)N[C@@H](CCC(=O)O)C(=O)N[C@H](C(=O)N1CCC[C@H]1C(N)=O)[C@@H](C)O)C(C)C)[C@@H](C)O) | 0.8 | 132 pM | 102 pM | 0.533 nM
4 | K([γGlu-γGlu-C20 diacid])CNTATCATQRLAEFLRHSSPNFGAIPSSTNVGHETY-NH2 (disulfide 2-7; N-terminus assumed; SMILES CC[C@H](C)[C@H](NC(=O)[C@H](C)NC(=O)CNC(=O)[C@H](Cc1ccccc1)NC(=O)[C@H](CC(N)=O)NC(=O)[C@@H]1CCCN1C(=O)[C@H](CO)NC(=O)[C@H](CO)NC(=O)[C@H](Cc1c[nH]cn1)NC(=O)[C@H](CCCNC(=N)N)NC(=O)[C@H](CC(C)C)NC(=O)[C@H](Cc1ccccc1)NC(=O)[C@H](CCC(=O)O)NC(=O)[C@H](C)NC(=O)[C@H](CC(C)C)NC(=O)[C@H](CCCNC(=N)N)NC(=O)[C@H](CCC(N)=O)NC(=O)[C@@H](NC(=O)[C@H](C)NC(=O)[C@@H]1CSSC[C@H](NC(=O)[C@@H](N)CCCCNC(=O)CC[C@H](NC(=O)CC[C@H](NC(=O)CCCCCCCCCCCCCCCCCCC(=O)O)C(=O)O)C(=O)O)C(=O)N[C@@H](CC(N)=O)C(=O)N[C@@H]([C@@H](C)O)C(=O)N[C@@H](C)C(=O)N[C@@H]([C@@H](C)O)C(=O)N1)[C@@H](C)O)C(=O)N1CCC[C@H]1C(=O)N[C@@H](CO)C(=O)N[C@@H](CO)C(=O)N[C@H](C(=O)N[C@@H](CC(N)=O)C(=O)N[C@H](C(=O)NCC(=O)N[C@@H](Cc1c[nH]cn1)C(=O)N[C@@H](CCC(=O)O)C(=O)N[C@H](C(=O)N[C@@H](Cc1ccc(O)cc1)C(N)=O)[C@@H](C)O)C(C)C)[C@@H](C)O) | – | 445 pM | 7050 pM | 0.525 nM
5 | K([γGlu-γGlu-C20 diacid])CNTATCATQRLADFLRHSSPNFGAIPSSTNVGPETY-NH2 (disulfide 2-7) | 5.3 | 159 pM | 843 pM | 0.172 nM

From patent publication US20140087995A1 (published 2014)
